Source: paper PMC4368098, “DICER-ARGONAUTE2 Complex in Continuous Fluorogenic Assays of RNA Interference Enzymes”

B1: D10 (dsRNA)
RNA 1: CCUGAGGAAGAACUAAAUCCAAAGAUA
RNA 2: UCUUUGGAUUUAGUUCUUCCUCAGG
B2: D08 (dsRNA)
RNA 1: CCAGAAGAACUUUUAGGCCGCUCAAUU
RNA 2: UUGAGCGGCCUAAAAGUUCUUCUGG
B3: D12 (dsRNA)
RNA 1: UACUCAGGACACAGAUUUAGACUUGGA
RNA 2: CAAGUCUAAAUCUGUGUCCUGAGUA
B4: D25 (dsRNA)
RNA 1: GCACCCCCACCUCUGGACUUGCCUUUC
RNA 2: AAGGCAAGUCCAGAGGUGGGGGUGC
B5: D09 (dsRNA)
RNA 1: CAGACACCUAGUCCUUCCGAUGGAAGC
RNA 2: UUCCAUCGGAAGGACUAGGUGUCUG
B6: D11 (dsRNA)
RNA 1: ACCUGAGCCUAAUAGUCCCAGUGAAUA
RNA 2: UUCACUGGGACUAUUAGGCUCAGGU
B7: D07 (dsRNA)
RNA 1: GGAUAAAAUUCUCAAUUCAGAGAAA
RNA 2: UUUCUCUGAAUUGAGAAUUUUAUCCAA
B8: D01 (dsRNA)
RNA 1: ACCGGUUGAAUCUUCAGAUAUGAAA
RNA 2: UUUCAUAUCUGAAGAUUCAACCGGUUU
B9: D04 (dsRNA)
RNA 1: GUUCCUGAGGAAGAACUAAAUCCAA
RNA 2: UUGGAUUUAGUUCUUCCUCAGGAACUG
B10: D02 (dsRNA)
RNA 1: GCUGAUUUGUGAACCCAUUCCUCAC
RNA 2: GUGAGGAAUGGGUUCACAAAUCAGCAC
B11: D05 (dsRNA)
RNA 1: GGAACAUGAUGGUUCACUUUUUCAA
RNA 2: UUGAAAAAGUGAACCAUCAUGUUCCAU
B12: D03 (dsRNA)
RNA 1: CCGGUUGAAUCUUCAGAUAUGAAAA
RNA 2: UUUUCAUAUCUGAAGAUUCAACCGGUU
B13: D06 (dsRNA)
RNA 1: GGAUAGUGAUAUGGUCAAUGAAUUC
RNA 2: GAAUUCAUUGACCAUAUCACUAUCCAC

Each binder was assayed against DICER;ARGONAUTE2 (AGO2) (human;human, UniProt Q9UPY3;Q9UKV8 1-1922;1-859, |) (assay: competition (fluorogenic siRNA processing); 80 nM BoPsi664, 30 nM each enzyme; Assay Buffer with 1 mM free Mg2+ (full composition not in the material), 37 C; indirect read-out by competitive inhibition of fluorogenic siRNA processing, no d). Settings: protein: recombinant;recombinant, tags: C-terminal 6xHis with TEV site, tag removed by TEV;N-terminal 6xHis with TEV site, copies: 1;1, 3' overhang 2 nt on strand 1, other end blunt.

Point of comparison: B2, IC50 1060 nM. Against it:
- B1 — 1.7-fold lower, 633 nM
- B3 — 2.3-fold lower, 453 nM
- B4 — within 1.5-fold, 796 nM
- B5 — within 1.5-fold, 767 nM
- B6 — 2.9-fold lower, 364 nM

Same assay, conditions: protein: recombinant;recombinant, tags: C-terminal 6xHis with TEV site, tag removed by TEV;N-terminal 6xHis with TEV site, copies: 1;1, 3' overhang 2 nt on strand 2, other end blunt

Point of comparison: B13, IC50 474 nM. Against it:
- B7 — 1.7-fold lower, 282 nM
- B8 — 8.5-fold lower, 56 nM
- B9 — 2.6-fold lower, 180 nM
- B10 — 3.3-fold lower, 142 nM
- B11 — 2.3-fold lower, 209 nM
- B12 — 3.2-fold lower, 150 nM
